Measurements from US12162911B2, “Pulmonary administration of pyocins for treating bacterial respiratory infections” (priority 2014, dated 2024).
“Also recorded” adds a separate entry of the source.

Tests used:
P. aeruginosa P8 = experiment: Mouse model of acute lung infection, P. aeruginosa P8; assay type: in vivo, Pseudomonas aeruginosa
Procedure: Study design. […] For all experiments 6 week-old, female, murine pathogen free C57/BL6 mice weighing 15-21 g were used (Charles Rivers Laboratories, UK). All mice received food and water ad libitum and were housed in groups during the experiments. Power calculations were used to predetermine sample size (n=6, for all treatment experiments). Mice were culled when required as determined by a scoring system or culled at the pre-determined 24 h time point. All mice, including outliers were included in the statistical analysis. Experiments were either carried out once only or repeated once (defined for each experiment).
Model of acute lung infection. Female C57/BL6 mice were inoculated intranasally with 25 μl of bacterial culture containing approximately 10^7 CFU of the selected P. aeruginosa strain^36. Antibiotic treatments were administered at either 6 h pre-infection or 1 h post-infection and were administered only once. Pyocins or tobramycin dissolved in PBS were administered via intranasal administration as described above. Two different end-points were used in these experiments. In order to determine a reduction in the bacterial load of the lungs compared to the untreated controls, all mice in the experiment were culled by carbon dioxide asphyxiation at the same time; 4-6 h post infection. To determine if mice could survive infection after pyocin or tobramycin treatment, mice were monitored closely, culled by carbon dioxide asphyxiation when required as determined by a scoring system or culled at the pre-determined 24 h time point. Uninfected mice, treated with pyocins, were used as controls in the first series of experiments in order to ensure no adverse effects from pyocin treatment. These controls were stopped in later experiments in order to reduce the number of animals used, once it was clear that the pyocins were not harmful. For CFU determination, lungs were removed aseptically and kept on ice in 750 μl of PBS until homogenised. Serial 10-fold dilutions of the homogenised lung were plated on Pseudomonas selective agar (20 g peptone, 1.5 g K2HPO4, 1.5 g MgSO4·7H2O, 10 ml glycerol, 15 g agar, 0.025 g Irgasan per litre) and incubated at 37° C. for 24 h and then room temperature for 24 h before the colonies were counted.

[1] = Pyocin S5-specific antibody titers by indirect ELISA
Procedure: Determination of pyocin S5-specific antibody titers by indirect ELISA. For analysis of IgG and IgA responses, blood was obtained by cardiac puncture immediately after carbon dioxide asphyxiation. Serum was obtained by centrifugation of samples at 13,500 g for 10 min followed by collection of the supernatant. Serum was stored at −80° C. Greiner 96-well plates (MaxiSorp) were coated with purified recombinant pyocin S5 (7.5 μg ml^−1, 50 μl/well) protein in PBS overnight at 4° C. The plates were washed three times with phosphate buffered saline+0.05% TWEEN20 (PBST) and then blocked for 1 h at 37° C. with 150 μl of blocking buffer (1% bovine serum albumin (BSA) in PBS). After washing, five-fold serially diluted samples were added, starting at a dilution of 1/50 in blocking buffer, and incubated for 2 h at 37° C. Serum from mice given pyocin S5+Freunds complete/incomplete subcutaneously three times over four weeks was used as a positive control and uncoated wells were used as negative controls. Serum from individual mice were analysed and replicate samples were carried out on separate days. After washing with PBST, 50 μl of anti-mouse IgG (Fc specific)-peroxidase antibody ((1/1000 dilution) Sigma, UK) or anti-mouse IgA (α-chain specific)-peroxidase antibody ((1/250 dilution) Sigma, UK) in PBST/0.1% BSA was added and plates were incubated for 1 h at 37° C. Plates were developed using […] OPD (o-Phenylenediamine dihydrochloride) tablets (Sigma, UK) and reactions were stopped using 3 M HCl. Optical densities (ODs) were read at 450 nm using a FLUOstar OPTIMA plate reader (BMG labtech, Germany).

[2] = survival to 24 h, treatment 1 h post-infection
[3] = mice repeatedly exposed I.N., 75 μg/dose three times (FIG. 8b)
[4] = mice repeatedly exposed I.P., 75 μg/dose three times (FIG. 8d)

B1: Pyocin S5: S-type pyocin, SEQ ID NO: 13; binds FptA, pore-forming effector (protein, listed as Pseudomonas aeruginosa)
chain: MSNDNEVPGSMVIVAQGPDDQYAYEVPPIDSAAVAGNMFGDLIQREIYLQKNIYYPVRSIFEQGTKEKKEINKKVSDQVDGLLKQITQGKREATRQERVDVMSAVLHKMESDLEGYKKTFTKGPFIDYEKQSSLSIYEAWVKIWEKNSWEERKKYPFQQLVRDELERAVAYYKQDSLSEAVKVLRQELNKQKALKEKEDLSQLERDYRTRKANLEMKVQSELDQAGSALPPLVSPTPEQWLERATRLVTQAIADKKQLQTTNNTLIKNSPTPLEKQKAIYNGELLVDEIASLQARLVKLNAETTRRRTEAERKAAEEQALQDAIKFTADFYKEVTEKFGARTSEMARQLAEGARGKNIRSSAEAIKSFEKHKDALNKKLSLKDRQAIAKAFDSLDKQMMAKSLEKFSKGFGVVGKAIDAASLYQEFKISTETGDWKPFFVKIETLAAGAAASWLVGIAFATATATPIGILGFALVMAVTGAMIDEDLLEKANNLVISI
- survival (P. aeruginosa P8; 30 ng ml^−1, 1 h post-infection (FIG. 2b)): survived to 24 h
- bacterial counts compared to the PBS controls (P. aeruginosa P8; 30 ng ml^−1, 24 h post-infection (FIG. 2b)): significantly reduced the bacterial counts
- bacteria recovered from lung (P. aeruginosa P8; 3 mg ml^−1 1 h post-infection, 24 h post-infection, six mice (FIG. 1d)): no bacteria recovered; also recorded: No colonies were recovered
- treated mice from which viable bacteria were recovered (P. aeruginosa P8; 3 mg ml^−1 intranasal 1 h post-infection, culled 4.5 h post-infection (FIG. 1c)): three out of six
- viable bacteria recovered from lung (P. aeruginosa P8; 3 mg ml^−1 intranasal 6 h pre-infection, 24 h post-infection (FIG. 1b)): no viable bacteria were recovered; also recorded: No colonies were recovered
- viable bacteria recovered from lung homogenates (P. aeruginosa P8; C57/BL6 mice, 3 mg ml^−1 intranasal 6 h pre-infection, culled 4 h post-infection (FIG. 1a)): no viable bacteria were recovered; also recorded: No colonies were recovered
- concentration at which effective in this model (P. aeruginosa P8; in vivo): lower than 1 nM
- Lowest active concentration tested (P. aeruginosa P8; lowest concentration tested with which the treated mice survived to 24 h): 30 ng/mL
- potency relative to tobramycin (P. aeruginosa P8; minimum effective concentrations compared): at least 100 fold
- Corresponding molarity (P. aeruginosa P8; molarity of lowest active concentration tested): 535 pM
- bacterial load compared with tobramycin (P. aeruginosa P8; pyocin S5 0.3 or 3 mg ml^−1 versus tobramycin 30 or 3 mg ml^−1, 1 h post-infection, culled 4.5 h (FIG. 2a)): reduced the bacterial load to a greater extent than tobramycin
- bacterial counts compared with tobramycin (P. aeruginosa P8; repeat of FIG. 2a experiment (FIG. 6)): reduced bacterial counts to a greater extent than tobramycin
- lowest concentration at which effective (lower limit) (P. aeruginosa P8; [2]): > 300 pg/mL
- lowest concentration at which effective (upper limit) (P. aeruginosa P8; [2]): ≤ 30 ng/mL
- pyocin-S5 specific IgA in serum [1, 3]: no IgA antibodies detected
- pyocin-S5 specific IgG, fold less than the Freunds complete/incomplete control group [1, 3]: 10 fold
- pyocin S5-specific IgA in serum [1, 4]: no pyocin S5-specific IgA was detected
- pyocin S5-specific IgG, fold less than the Freunds complete/incomplete control group [1, 4]: 1000 fold
